Results from paper PMC7948397, “A novel soluble complement receptor 1 fragment with enhanced therapeutic potential” (The Journal of Biological Chemistry, 2020).

Key:
[1] = target: T1, CR1 (soluble analyte of the reverse SPR experiment; construct not named) (human, UniProt P17927 42-1971); assay: SPR; reverse format: C3b or C4b immobilised by amine coupling (230 RU, only 20% active), CR1 as analyte; apparent affinities; data not shown; conditions: both partners purified
T1 construct: human complement receptor 1, soluble
T1 sequence (P17927 42-1971): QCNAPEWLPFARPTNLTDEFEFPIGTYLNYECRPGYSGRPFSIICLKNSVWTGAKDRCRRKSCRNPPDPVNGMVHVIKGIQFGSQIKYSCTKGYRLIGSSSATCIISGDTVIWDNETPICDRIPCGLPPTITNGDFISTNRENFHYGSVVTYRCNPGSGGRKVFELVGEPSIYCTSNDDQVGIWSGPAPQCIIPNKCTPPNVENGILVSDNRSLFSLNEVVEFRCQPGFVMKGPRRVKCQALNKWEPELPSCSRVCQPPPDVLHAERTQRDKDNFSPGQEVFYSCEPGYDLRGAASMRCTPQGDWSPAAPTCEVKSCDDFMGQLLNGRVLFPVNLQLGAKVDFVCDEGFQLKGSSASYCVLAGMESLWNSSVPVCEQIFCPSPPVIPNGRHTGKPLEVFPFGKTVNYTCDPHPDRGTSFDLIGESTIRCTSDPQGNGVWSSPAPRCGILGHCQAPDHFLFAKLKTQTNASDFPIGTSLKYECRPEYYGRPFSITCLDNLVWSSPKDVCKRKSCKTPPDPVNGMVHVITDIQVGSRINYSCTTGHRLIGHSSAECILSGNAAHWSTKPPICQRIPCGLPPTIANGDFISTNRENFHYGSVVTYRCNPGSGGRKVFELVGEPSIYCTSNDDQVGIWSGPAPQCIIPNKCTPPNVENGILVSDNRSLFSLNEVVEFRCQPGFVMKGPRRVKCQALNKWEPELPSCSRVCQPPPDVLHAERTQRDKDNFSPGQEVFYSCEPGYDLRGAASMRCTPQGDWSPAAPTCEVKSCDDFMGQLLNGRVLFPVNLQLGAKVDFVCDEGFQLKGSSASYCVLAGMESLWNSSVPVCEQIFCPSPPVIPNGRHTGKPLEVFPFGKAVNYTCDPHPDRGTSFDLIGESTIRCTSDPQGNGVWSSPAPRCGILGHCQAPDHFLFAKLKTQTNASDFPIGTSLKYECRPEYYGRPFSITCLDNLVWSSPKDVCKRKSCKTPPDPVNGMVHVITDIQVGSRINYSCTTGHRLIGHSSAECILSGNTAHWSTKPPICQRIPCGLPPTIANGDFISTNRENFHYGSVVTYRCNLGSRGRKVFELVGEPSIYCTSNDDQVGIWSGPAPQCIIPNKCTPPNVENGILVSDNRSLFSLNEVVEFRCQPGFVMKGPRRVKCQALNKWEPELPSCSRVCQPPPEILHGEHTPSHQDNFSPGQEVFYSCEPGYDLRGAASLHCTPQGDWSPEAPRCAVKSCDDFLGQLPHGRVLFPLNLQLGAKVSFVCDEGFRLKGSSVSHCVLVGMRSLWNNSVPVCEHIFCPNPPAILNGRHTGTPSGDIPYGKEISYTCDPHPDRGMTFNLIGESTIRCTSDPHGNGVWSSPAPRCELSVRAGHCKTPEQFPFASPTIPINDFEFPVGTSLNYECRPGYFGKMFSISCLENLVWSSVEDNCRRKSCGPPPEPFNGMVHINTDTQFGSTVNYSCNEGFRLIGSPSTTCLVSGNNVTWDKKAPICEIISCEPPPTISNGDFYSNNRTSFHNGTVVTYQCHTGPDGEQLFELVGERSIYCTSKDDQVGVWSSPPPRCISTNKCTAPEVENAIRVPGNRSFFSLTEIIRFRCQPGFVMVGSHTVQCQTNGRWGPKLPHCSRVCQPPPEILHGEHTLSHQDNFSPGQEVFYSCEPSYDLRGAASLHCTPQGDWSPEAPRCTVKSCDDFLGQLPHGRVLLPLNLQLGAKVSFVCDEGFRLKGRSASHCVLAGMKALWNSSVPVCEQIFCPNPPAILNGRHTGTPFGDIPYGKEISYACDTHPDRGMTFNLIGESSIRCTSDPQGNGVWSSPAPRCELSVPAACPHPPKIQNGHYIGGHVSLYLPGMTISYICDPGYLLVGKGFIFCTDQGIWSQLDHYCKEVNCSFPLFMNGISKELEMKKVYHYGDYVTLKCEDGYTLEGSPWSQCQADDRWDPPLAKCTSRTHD

plasma-derived human C3b = target: T2, plasma-derived human C3b (human, UniProt P01024 23-667; P01024 749-1663); assay: SPR; His-tagged CSL040 or HuCR1(1971) captured on a Ni-NTA chip to 75-100 RU, C3b or C4b injected as analyte; Biacore T200, 37 °C; 10 mM Hepes, 150 mM NaCl, 0.1% bovine serum albumin, pH 7.3; 1:1 model with a term for mass transport; conditions: both partners purified
T2 construct: human complement C3, beta chain; human complement C3b, alpha' chain (C3 alpha chain without C3a); source: bought: Complement Technology, plasma-derived
T2 sequence (P01024 23-667, chain 1 of 2): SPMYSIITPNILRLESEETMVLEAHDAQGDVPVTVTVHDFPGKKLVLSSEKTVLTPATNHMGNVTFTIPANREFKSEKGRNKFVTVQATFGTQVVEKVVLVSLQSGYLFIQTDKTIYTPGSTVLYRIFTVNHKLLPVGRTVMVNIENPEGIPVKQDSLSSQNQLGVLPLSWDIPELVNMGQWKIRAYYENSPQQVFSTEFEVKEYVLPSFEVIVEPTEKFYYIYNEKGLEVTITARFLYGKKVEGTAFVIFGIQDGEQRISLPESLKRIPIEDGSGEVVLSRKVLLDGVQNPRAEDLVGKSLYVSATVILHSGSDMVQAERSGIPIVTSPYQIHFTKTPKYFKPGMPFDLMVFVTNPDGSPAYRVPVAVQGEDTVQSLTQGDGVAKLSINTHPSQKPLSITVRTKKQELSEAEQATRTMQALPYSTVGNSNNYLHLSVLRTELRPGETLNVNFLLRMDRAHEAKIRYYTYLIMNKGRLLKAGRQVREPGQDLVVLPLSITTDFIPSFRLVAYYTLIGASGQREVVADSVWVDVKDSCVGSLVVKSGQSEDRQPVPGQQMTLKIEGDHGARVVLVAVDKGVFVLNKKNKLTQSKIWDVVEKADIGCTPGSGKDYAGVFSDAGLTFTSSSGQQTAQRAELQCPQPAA
T2 sequence (P01024 749-1663, chain 2 of 2): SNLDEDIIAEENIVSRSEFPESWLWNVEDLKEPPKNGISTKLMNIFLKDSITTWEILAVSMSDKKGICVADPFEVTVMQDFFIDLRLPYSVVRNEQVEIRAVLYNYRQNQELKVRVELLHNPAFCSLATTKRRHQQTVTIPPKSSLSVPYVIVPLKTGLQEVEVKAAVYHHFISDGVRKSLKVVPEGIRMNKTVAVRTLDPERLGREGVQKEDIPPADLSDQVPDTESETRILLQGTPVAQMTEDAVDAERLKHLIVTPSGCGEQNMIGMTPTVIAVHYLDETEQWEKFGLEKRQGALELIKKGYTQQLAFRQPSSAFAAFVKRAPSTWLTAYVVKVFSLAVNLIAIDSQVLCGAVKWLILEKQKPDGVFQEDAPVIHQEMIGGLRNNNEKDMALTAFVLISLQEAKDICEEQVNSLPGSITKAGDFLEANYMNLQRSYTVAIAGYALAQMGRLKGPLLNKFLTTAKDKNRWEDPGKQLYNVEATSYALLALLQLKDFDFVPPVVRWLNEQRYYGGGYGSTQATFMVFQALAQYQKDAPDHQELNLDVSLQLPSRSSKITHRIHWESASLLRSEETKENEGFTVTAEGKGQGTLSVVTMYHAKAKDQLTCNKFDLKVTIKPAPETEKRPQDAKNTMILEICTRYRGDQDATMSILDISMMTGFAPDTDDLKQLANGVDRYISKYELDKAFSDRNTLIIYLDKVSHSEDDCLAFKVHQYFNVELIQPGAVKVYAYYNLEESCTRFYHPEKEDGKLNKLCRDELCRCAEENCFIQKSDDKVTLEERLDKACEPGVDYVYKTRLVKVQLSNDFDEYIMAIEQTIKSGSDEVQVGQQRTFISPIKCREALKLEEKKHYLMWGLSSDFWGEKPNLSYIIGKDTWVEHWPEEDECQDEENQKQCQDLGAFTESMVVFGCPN

B1: plasma-derived human C4b (ligand)
chain 1: KPRLLLFSPSVVHLGVPLSVGVQLQDVPRGQVVKGSVFLRNPSRNNVPCSPKVDFTLSSERDFALLSLQVPLKDAKSCGLHQLLRGPEVQLVAHSPWLKDSLSRTTNIQGINLLFSSRRGHLFLQTDQPIYNPGQRVRYRVFALDQKMRPSTDTITVMVENSHGLRVRKKEVYMPSSIFQDDFVIPDISEPGTWKISARFSDGLESNSSTQFEVKKYVLPNFEVKITPGKPYILTVPGHLDEMQLDIQARYIYGKPVQGVAYVRFGLLDEDGKKTFFRGLESQTKLVNGQSHISLSKAEFQDALEKLNMGITDLQGLRLYVAAAIIESPGGEMEEAELTSWYFVSSPFSLDLSKTKRHLVPGAPFLLQALVREMSGSPASGIPVKVSATVSSPGSVPEVQDIQQNTDGSGQVSIPIIIPQTISELQLSVSAGSPHPAIARLTVAAPPSGGPGFLSIERPDSRPPRVGDTLNLNLRAVGSGATFSHYYYMILSRGQIVFMNREPKRTLTSVSVFVDHHLAPSFYFVAFYYHGDHPVANSLRVDVQAGACEGKLELSVDGAKQYRNGESVKLHLETDSLALVALGALDTALYAAGSKSHKPLNMGKVFEAMNSYDLGCGPGGGDSALQVFQAAGLAFSDGDQWTLSRKRLSCPKEKTT
chain 2: ALEILQEEDLIDEDDIPVRSFFPENWLWRVETVDRFQILTLWLPDSLTTWEIHGLSLSKTKGLCVATPVQLRVFREFHLHLRLPMSVRRFEQLELRPVLYNYLDKNLTVSVHVSPVEGLCLAGGGGLAQQVLVPAGSARPVAFSVVPTAAAAVSLKVVARGSFEFPVGDAVSKVLQIEKEGAIHREELVYELNPLDHRGRTLEIPGNSDPNMIPDGDFNSYVRVTASDPLDTLGSEGALSPGGVASLLRLPRGCGEQTMIYLAPTLAASRYLDKTEQWSTLPPETKDHAVDLIQKGYMRIQQFRKADGSYAAWLSRDSSTWLTAFVLKVLSLAQEQVGGSPEKLQETSNWLLSQQQADGSFQDPCPVLDRSMQGGLVGNDETVALTAFVTIALHHGLAVFQDEGAEPLKQRVEASISKANSFLGEKASAGLLGAHAAAITAYALTLTKAPVDLLGVAHNNLMAMAQETGDNLYWGSVTGSQSNAVSPTPAPRNPSDPMPQAPALWIETTAYALLHLLLHEGKAEMADQASAWLTRQGSFQGGFRSTQDTVIALDALSAYWIASHTTEERGLNVTLSSTGRNGFKSHALQLNNRQIRGLEEELQFSLGSKINVKVGGNSKGTLKVLRTYNVLDMKNTTCQDLQIEVTVKGHVEYTMEANEDYEDYEYDELPAKDDPDAPLQPVTPLQLFEG
chain 3: EAPKVVEEQESRVHYTVCIWRNGKVGLSGMAIADVTLLSGFHALRADLEKLTSLSDRYVSHFETEGPHVLLYFDSVPTSRECVGFEAVQEVPVGLVQPASATLYDYYNPERRCSVFYGAPSKSRLLATLCSAEVCQCAEGKCPRQRRALERGLQDEDGYRMKFACYYPRVEYGFQVKVLREDSRAAFRLFETKITQVLHFTKDVKAAANQMRNFLVRASCRLRLEPGKEYLIMGLDGATYDLEGHPQYLLDSNSWIEEMPSERLCRSTRQRAACAQLNDFLQEYGTQGCQV
notes: human complement C4, beta chain; human complement C4b, alpha' chain (C4 alpha chain without C4a); human complement C4, gamma chain; Plasma-derived C4b is likely a mixture of C4A and C4B forms; source: bought: Complement Technology, plasma-derived; copies: + +
[1]
  Kd: ~4900 nM

B2: HuCR1(1392)/CSL040, soluble human complement receptor 1 truncated at amino acid 1392 (LHR-A, LHR-B and LHR-C) (receptor)
chain: not shown
notes: signal peptide in the construct; human complement receptor 1 (HuCR1, CD35), endogenous signal peptide, ends at amino acid 1392 (LHR-A, LHR-B, LHR-C; lacks LHR-D); amino acid numbering based on Met + 1; cDNA GenBank NP_000564, codon optimised; N-glycosylated, highly sialylated; A version without the His-tag was also made, but the SPR used the His-tagged protein; also called LHR-ABC; not shown: …
plasma-derived human C3b
  Kd: 265 nM
  koff: 0.00654 s⁻¹
  kon: 24800 M⁻¹ s⁻¹
